In US20250049896A1 (Regeneron, published 2025):
Positions count from the first letter of the chain named.

B1: 69323 Fab (Fab, V domains shown)
VH: EVQLVESGGGLVQPGRSLRLSCAASGFTFDDYAMHWVRQAPGKGLEWVSGISWNSGYIGYADSVKGRFTISRDNAENSLHLQMNSLRAEDTALYYCARGGSTLVRGVKGGYYGMDVWGQGTTVTVSS
VL: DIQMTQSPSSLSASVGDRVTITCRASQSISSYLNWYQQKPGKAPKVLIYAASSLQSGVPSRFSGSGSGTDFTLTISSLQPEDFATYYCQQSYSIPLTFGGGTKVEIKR
notes: CHO supernatant
B2: 69263 scFv (VK-VH) (scFv)
scFv: DIQMTQSPSSLSASVGDRVTITCRASQDISHYSAWYQQKPGKLPNLLIYAASTLQSGVPSRFSGSGSGTDFSLTTSSLQPEDVATYYCQKYNSVPLTFGGGTKVEIKGGGGSGGGGSGGGGSEVQLVESGGGLVQPGRSLRLSCAVSGFTFDDYAMHWVRQAPGKGLEWVSGISWNSGTRGYADSVKGRFTISRDNAKNSLYLQMNSLRGEDTALYYCVKDITISPNYYGMDVWGQGTTVTVSS
notes: CHO supernatant; Vk-3xG4S-Vh
B3: 31874B scFv (VK-VH) (scFv)
scFv: DIQMTQSPSSLSASVGDRVTITCRASQGISNYLAWYQQKPGKVPNLLIYAASTLQSGVPSRFSGSGSGTDFTLTISSLQPEDVATYYCQKYNSAPLTFGGGTKVEIKGGGGSGGGGSGGGGSEVQLVESGGGLVQPGGSLRLSCAASGFAFSSYAMTWVRQAPGKGLEWVSVISGTGGSTYYADSVKGRFTISRDNSKNTLYLQMNSLRAEDTAVYYCAKGGAARRMEYFQYWGQGTLVTVSS
notes: CHO supernatant; Vk-3xG4S-Vh
B4: 69263 scFv (VH-VK) (scFv)
chain: EVQLVESGGGLVQPGRSLRLSCAVSGFTFDDYAMHWVRQAPGKGLEWVSGISWNSGTRGYADSVKGRFTISRDNAKNSLYLQMNSLRGEDTALYYCVKDITISPNYYGMDVWGQGTTVTVSSDIQMTQSPSSLSASVGDRVTITCRASQDISHYSAWYQQKPGKLPNLLIYAASTLQSGVPSRFSGSGSGTDFSLTTSSLQPEDVATYYCQKYNSVPLTFGGGTKVEIK
B5: 31863B scFv (VK-VH) (scFv)
scFv: DIQMTQSPSSLSASIGDRVTITCRASQGISNYLAWYQQKPGKVPKLLIYAASTLQSGVPSRFSGSGSGTDFTLTISSLQPEDVATYYCQNHNSVPLTFGGGTKVEIKGGGGSGGGGSGGGGSEVQLVESGGGLVQPGGSLRLSCAASGFTFNSYAMTWVRQAPGKGLEWVSFIGGSTGNTYYAGSVKGRFTISSDNSKKTLYLQMNSLRAEDTAVYYCAKGGAARRMEYFQHWGQGTLVTVSS
notes: CHO supernatant; Vk-3xG4S-Vh
B6: 69261 Fab (Fab, V domains shown)
VH: QVQLVESGGGLVKPGGSLRLSCAASGFTFSVYYMNWIRQAPGKGLEWVSYISSSGSTIYYADSVKGRFTISRDNAKNSLYLQMNSLRAEDTAVYYCGREGYSGTYSYYGMDVWGQGTTVTVSS
VL: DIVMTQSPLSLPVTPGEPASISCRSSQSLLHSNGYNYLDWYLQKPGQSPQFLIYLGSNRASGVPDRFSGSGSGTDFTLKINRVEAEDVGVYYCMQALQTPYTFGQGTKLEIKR
notes: CHO supernatant
B7: 31874B Fab (Fab, V domains shown)
VH: EVQLVESGGGLVQPGGSLRLSCAASGFAFSSYAMTWVRQAPGKGLEWVSVISGTGGSTYYADSVKGRFTISRDNSKNTLYLQMNSLRAEDTAVYYCAKGGAARRMEYFQYWGQGTLVTVSS
VL: DIQMTQSPSSLSASVGDRVTITCRASQGISNYLAWYQQKPGKVPNLLIYAASTLQSGVPSRFSGSGSGTDFTLTISSLQPEDVATYYCQKYNSAPLTFGGGTKVEIKR
notes: CHO supernatant
B8: 69263 Fab (Fab, V domains shown)
VH: EVQLVESGGGLVQPGRSLRLSCAVSGFTFDDYAMHWVRQAPGKGLEWVSGISWNSGTRGYADSVKGRFTISRDNAKNSLYLQMNSLRGEDTALYYCVKDITISPNYYGMDVWGQGTTVTVSS
VL: B7 VL with G28D, N31H, L33S, V43L, T72S, I75T, A94V
notes: CHO supernatant
B9: 69305 scFv (VK-VH) (scFv)
scFv: DIQMTQSPSSLSASVGDRVTITCRASQSIDRYLNWYRQKPGKAPKLLIYTTSSLQSGVPSRFSGSGSGTDFTLTLSSLQPEDFATYYCQQSYSPPLTFGGGTKVEIKGGGGSGGGGSGGGGSQVQLVESGGGVVQPGRSLRLSCAASGFTFSSYGMHWVRQAPGKGLEWVAVIWYDGSNKYYADSVKGRFTISRDISKNTLYLQMNSLRAEDTAVYYCAGQLDLFFDYWGQGTLVTVSS
notes: CHO supernatant; Vk-3xG4S-Vh
B10: 69307 scFv (VK-VH) (scFv)
scFv: DIQMTQSPSSVSASVGDRVTITCRASQGISSWLAWYQQKPGKAPKLLIYAASSLQSGVPSRFSGSGSGTDFTLTISSLQPEDFATYYCQKADSLPYAFGQGTKLEIKGGGGSGGGGSGGGGSEVQLVESGGGLVQPGGSLRLSCTASGFTFSNYWMTWVRQAPGKGLEWVANIKEDGSEKEYVDSVKGRFTISRDNAKNSLYLQMNSLRGEDTAVYYCARDGEQLVDYYYYYVMDVWGQGTTVTVSS
notes: CHO supernatant; Vk-3xG4S-Vh
B11: 69329 scFv (VK-VH) (scFv)
scFv: B10 scFv with D92N, L94F, A97T, T145A, E181D
notes: CHO supernatant; Vk-3xG4S-Vh
B12: 69305 scFv (VH-VK) (scFv)
chain: QVQLVESGGGVVQPGRSLRLSCAASGFTFSSYGMHWVRQAPGKGLEWVAVIWYDGSNKYYADSVKGRFTISRDISKNTLYLQMNSLRAEDTAVYYCAGQLDLFFDYWGQGTLVTVSSDIQMTQSPSSLSASVGDRVTITCRASQSIDRYLNWYRQKPGKAPKLLIYTTSSLQSGVPSRFSGSGSGTDFTLTLSSLQPEDFATYYCQQSYSPPLTFGGGTKVEIK
B13: 69305 Fab (Fab, V domains shown)
VH: QVQLVESGGGVVQPGRSLRLSCAASGFTFSSYGMHWVRQAPGKGLEWVAVIWYDGSNKYYADSVKGRFTISRDISKNTLYLQMNSLRAEDTAVYYCAGQLDLFFDYWGQGTLVTVSS
VL: DIQMTQSPSSLSASVGDRVTITCRASQSIDRYLNWYRQKPGKAPKLLIYTTSSLQSGVPSRFSGSGSGTDFTLTLSSLQPEDFATYYCQQSYSPPLTFGGGTKVEIKR
notes: CHO supernatant
B14: 31874B scFv (VH-VK) (scFv)
chain: EVQLVESGGGLVQPGGSLRLSCAASGFAFSSYAMTWVRQAPGKGLEWVSVISGTGGSTYYADSVKGRFTISRDNSKNTLYLQMNSLRAEDTAVYYCAKGGAARRMEYFQYWGQGTLVTVSSDIQMTQSPSSLSASVGDRVTITCRASQGISNYLAWYQQKPGKVPNLLIYAASTLQSGVPSRFSGSGSGTDFTLTISSLQPEDVATYYCQKYNSAPLTFGGGTKVEIK
B15: 31863B scFv (VH-VK) (scFv)
chain: EVQLVESGGGLVQPGGSLRLSCAASGFTFNSYAMTWVRQAPGKGLEWVSFIGGSTGNTYYAGSVKGRFTISSDNSKKTLYLQMNSLRAEDTAVYYCAKGGAARRMEYFQHWGQGTLVTVSSDIQMTQSPSSLSASIGDRVTITCRASQGISNYLAWYQQKPGKVPKLLIYAASTLQSGVPSRFSGSGSGTDFTLTISSLQPEDVATYYCQNHNSVPLTFGGGTKVEIK
B16: 69307 Fab (Fab, V domains shown)
VH: EVQLVESGGGLVQPGGSLRLSCTASGFTFSNYWMTWVRQAPGKGLEWVANIKEDGSEKEYVDSVKGRFTISRDNAKNSLYLQMNSLRGEDTAVYYCARDGEQLVDYYYYYVMDVWGQGTTVTVSS
VL: DIQMTQSPSSVSASVGDRVTITCRASQGISSWLAWYQQKPGKAPKLLIYAASSLQSGVPSRFSGSGSGTDFTLTISSLQPEDFATYYCQKADSLPYAFGQGTKLEIKR
notes: CHO supernatant
B17: 69329 Fab (Fab, V domains shown)
VH: B16 VH with T23A, E59D
VL: B16 VL with D92N, L94F, A97T
notes: CHO supernatant

Molecular target: T1, Hmm-hTFRC (REGN2431), monomeric human transferrin receptor ectodomain with N-terminal hexahistidine-myc-myc … (human, UniProt P02786 89-760)
T1 construct: also called hmm.hTfR(C89-F763); His-myc-myc-hTFRC ecto
Experiment: blocking ELISA, supernatant; Hmm-hTFRC binding to immobilized human holo-Tf
Description: In the blocking assay, the anti-human Transferrin goat IgG polyclonal antibody (anti-hTf pAb) was passively absorbed at a concentration of 2 micrograms/mL in PBS on a 96-well microtiter plate overnight at 4° C. […] To the same plate, human holo-Tf was then added at a concentration of 1 micrograms/mL in PBS+0.5% BSA for 2 hours at room temperature. […] After a 1-hour incubation, the mixtures were transferred to the human holo-Tf microtiter plates. […] The plates were developed using TMB substrate solution according to the manufacturer's recommended procedure and absorbance at 450 nm was measured on a Victor™ Multilabel Plate Reader.
The ability of the anti-TfR antibody to block human TFRC binding to human holo-Tf was evaluated using an ELISA-based blocking assay.

T1 sequence (P02786 other isoform, or with tags, fused parts or gaps): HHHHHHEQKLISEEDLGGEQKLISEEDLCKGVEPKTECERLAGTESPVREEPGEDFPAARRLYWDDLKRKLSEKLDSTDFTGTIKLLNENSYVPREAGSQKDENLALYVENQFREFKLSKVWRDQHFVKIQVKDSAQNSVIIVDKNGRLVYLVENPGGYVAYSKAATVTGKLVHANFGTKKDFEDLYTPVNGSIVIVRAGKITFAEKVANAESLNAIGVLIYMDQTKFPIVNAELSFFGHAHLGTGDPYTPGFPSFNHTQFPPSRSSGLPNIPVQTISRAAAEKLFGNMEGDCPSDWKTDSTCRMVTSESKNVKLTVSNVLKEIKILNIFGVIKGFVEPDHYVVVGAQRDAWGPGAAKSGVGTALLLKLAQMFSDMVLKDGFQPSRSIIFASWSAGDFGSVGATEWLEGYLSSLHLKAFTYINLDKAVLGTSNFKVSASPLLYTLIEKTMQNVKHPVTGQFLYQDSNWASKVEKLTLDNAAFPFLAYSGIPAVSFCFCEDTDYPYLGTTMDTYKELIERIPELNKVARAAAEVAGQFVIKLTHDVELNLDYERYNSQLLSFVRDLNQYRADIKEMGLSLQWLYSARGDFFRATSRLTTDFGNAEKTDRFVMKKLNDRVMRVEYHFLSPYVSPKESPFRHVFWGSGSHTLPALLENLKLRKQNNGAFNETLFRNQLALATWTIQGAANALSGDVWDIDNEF

| Binder | % Blocking [%] |
| --- | --- |
| B1 | 12 |
| B2 | 4 |
| B3 | -1 |
| B4 | 14 |
| B5 | 7 |
| B6 | 11 |
| B7 | 16 |
| B8 | 14 |
| B9 | 5 |
| B10 | 12 |
| B11 | 19 |
| B12 | 3 |
| B13 | 3 |
| B14 | 14 |
| B15 | 13 |
| B16 | 12 |
| B17 | 8 |
